Test results as given in paper PMC9223101, “Transcription Regulation of Cell Cycle Regulatory Genes Mediated by NtrX to Affect Sinorhizobium meliloti Cell Division”.

Biological target: T1, NtrX D53E (His-NtrXD53E) (Sinorhizobium meliloti 1021, UniProt Q92Q87 1-454, D53E)
T1 sequence: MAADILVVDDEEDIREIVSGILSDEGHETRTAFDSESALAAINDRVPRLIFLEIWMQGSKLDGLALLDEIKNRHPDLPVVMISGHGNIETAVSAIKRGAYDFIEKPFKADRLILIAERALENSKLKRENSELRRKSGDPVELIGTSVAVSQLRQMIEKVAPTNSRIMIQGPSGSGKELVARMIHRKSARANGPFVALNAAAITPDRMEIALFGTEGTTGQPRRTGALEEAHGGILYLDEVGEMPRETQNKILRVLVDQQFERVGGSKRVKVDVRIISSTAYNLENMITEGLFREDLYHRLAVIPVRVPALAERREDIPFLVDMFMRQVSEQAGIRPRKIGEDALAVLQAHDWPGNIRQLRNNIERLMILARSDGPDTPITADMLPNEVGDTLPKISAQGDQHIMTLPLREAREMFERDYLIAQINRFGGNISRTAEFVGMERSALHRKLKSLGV
Test: EMSA; 5 mM Mg2+; almost no complex; EMSA, 20 uL: 3, 6, 15 ng NtrX, 2 nM probe (2 or 40 nM in Methods), 1x binding buffer, 5 mM MgCl2, 50 ng/uL poly(dI-dC), 0.05% NP-40, 1% glycerol, 30 min at 28 C; pH and salt of binding buffer not stated (phosphorylation in 50 mM Tris-HCl pH 7.6, 50 mM KCl, 20 mM MgCl2 nominal 1x)
Conditions: protein: recombinant; tags: His (pET28b); chain copies: 2; label: biotin; blunt

B1: ntrY promoter probe (dsDNA)
DNA 1: GCGCTTGACTGAGATGCAACACCGTTGCATTTTCGCCACAATGCGTTGCTTGAACCTCGCATAAGCGTCGATTCGCCGGC
DNA 2: GCCGGCGAATCGACGCTTATGCGAGGTTCAAGCAACGCATTGTGGCGAAAATGCAACGGTGTTGCATCTCAGTCAAGCGC
binding result: no binding
